Positions count from the first letter of the chain named.
Key:
Details in all cases: tags: NLS, 6xHis
MHP14(01) = biological target: T1, MHP14(01) (artificial); assay: cell_activity; yeast 37 C; 28 C: 0
T1 chain: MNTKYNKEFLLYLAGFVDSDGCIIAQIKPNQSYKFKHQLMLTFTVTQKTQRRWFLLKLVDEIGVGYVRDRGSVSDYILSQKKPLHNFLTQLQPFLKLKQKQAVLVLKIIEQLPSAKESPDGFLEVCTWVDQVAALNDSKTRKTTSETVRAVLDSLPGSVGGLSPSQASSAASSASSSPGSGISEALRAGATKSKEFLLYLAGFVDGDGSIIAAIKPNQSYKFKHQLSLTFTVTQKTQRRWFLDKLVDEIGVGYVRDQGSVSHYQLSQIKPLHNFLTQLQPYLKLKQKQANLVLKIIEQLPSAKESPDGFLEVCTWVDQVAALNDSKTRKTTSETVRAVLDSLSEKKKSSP
Experimental: (§1) A 3 mL culture of selective media (MP Biomedical) was inoculated with a single colony of the yeast screening strain and grown at 30° C. overnight. On the following day, a 50 ml YPD culture (MP Biomedical) was started with 2 ml of the overnight culture and grown at 30° C. overnight. On the following day, the cells were harvested by centrifugation at 4000 rpm. The cells were resuspended in 100 ml ice cold water and centrifuged again. The cells were then washed in 1.2 M sorbitol, followed by treatment with 2 ml of 10 mM Tris pH 8.0, 1 mM EDTA, 100 mM Lithium acetate, 10 mM DTT, 0.6M sorbitol for 30 minutes at 30° C. with shaking. The cells were recovered by centrifugation, washed in 40 ml 1.2M sorbitol and finally resuspended in 250 microliters of 1.2M sorbitol. 50 microliter aliquots were transferred to test tubes on ice. Up to 5 microliters of DNA (100-500 nanograms) were added. The suspension was transferred to a 0.2 cm electroporation cuvette, on ice. Electroporation was performed with a pulse charge at 1.5 kV, 200 ohms, 25 microF (pulse time of 5 milliseconds). 1 mL YPD media (MP Biomedical) was added and the cells were allowed to recover at 30° C. for 1-2 hr. The cells were centrifuged, resuspended in 100 uL 1M sorbitol and plated on selective media lacking leucine and containing 2% galactose. The resulting yeast colonies were incubated at various temperatures ranging from 22 to 37 degrees Celsius for 7-10 days. I-CreI and meganucleases derived from it have maximal activity at or above 37 degrees Celsius. Screening was performed at a range of temperatures from 22 to 37 degrees in order to observe increases in activity at lower temperatures which are relevant to certain biological systems (eg. plant cells, plant cell cultures, etc). At that time the red/white sectoring phenotype, indicative of meganuclease activity was observed. Colonies with increased white sectoring over the parental meganuclease (indicating colonies expressing a meganuclease with increased meganuclease activity), also referred to as “hits” and sometimes completely white, were isolated for further analysis.
(§2) A total of 15 MHP14 variants with increased activity were confirmed in the yeast system (as described in Example 6). Increased activity was observed across a range of temperatures: 28 degrees Celsius, 34 degrees Celsius and 37 degrees Celsius, as shown in Table 11.

MHP14(06) = biological target: T2, MHP14(06) (artificial); assay: cell_activity; yeast 37 C; 28 C: 0
T2 chain: T1 chain with S19G, C22S, Q50R, V103N, V132I, K244E, G308K
Experimental: as §1, §2

MHP14(L14-04) = biological target: T3, MHP14(L14-04) (artificial); assay: cell_activity; yeast 37 C; 28 C: 0
T3 chain: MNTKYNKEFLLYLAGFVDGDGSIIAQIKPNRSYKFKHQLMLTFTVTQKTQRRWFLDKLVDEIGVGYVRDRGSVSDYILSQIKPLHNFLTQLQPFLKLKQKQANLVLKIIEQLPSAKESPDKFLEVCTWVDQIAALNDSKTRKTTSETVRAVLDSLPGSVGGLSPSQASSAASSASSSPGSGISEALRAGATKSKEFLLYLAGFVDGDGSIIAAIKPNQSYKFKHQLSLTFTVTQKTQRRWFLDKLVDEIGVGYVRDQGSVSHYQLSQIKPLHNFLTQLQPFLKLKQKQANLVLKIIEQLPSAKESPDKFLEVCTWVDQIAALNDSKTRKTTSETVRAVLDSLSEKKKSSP
Experimental: as §1, §2

LIG3-4(B40) = biological target: T4, LIG3-4(B40) (artificial); assay: cell_activity; yeast 30 C; 22 C: 0
T4 chain: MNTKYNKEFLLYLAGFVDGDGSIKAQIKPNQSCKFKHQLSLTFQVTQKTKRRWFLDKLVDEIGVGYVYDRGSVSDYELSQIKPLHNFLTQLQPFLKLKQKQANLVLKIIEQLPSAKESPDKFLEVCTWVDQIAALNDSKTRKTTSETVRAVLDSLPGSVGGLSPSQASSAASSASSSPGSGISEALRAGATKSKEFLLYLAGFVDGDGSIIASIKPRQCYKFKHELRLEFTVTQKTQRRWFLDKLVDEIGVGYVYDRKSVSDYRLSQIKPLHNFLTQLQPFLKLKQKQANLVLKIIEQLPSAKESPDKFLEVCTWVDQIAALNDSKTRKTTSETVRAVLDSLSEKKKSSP
Experimental: as §1

LIG3-4(B36) = biological target: T5, LIG3-4(B36) (artificial); assay: cell_activity; yeast 30 C; 22 C: 0
T5 chain: T4 chain with K50Q, G71K
Experimental: as §1

B1: MHP14 recognition site (dsDNA)
DNA 1: CAAACAGATTCACGTCAGATTT
DNA 2: AAATCTGACGTGAATCTGTTTG
MHP14(01)
  activity: 3 score 0-4
MHP14(06)
  activity: 3.5 score 0-4
MHP14(L14-04)
  activity: 3 score 0-4

B2: LIG3-4 recognition site (dsDNA)
DNA 1: ATATACCTCACACGTACGCGTA
DNA 2: TACGCGTACGTGTGAGGTATAT
LIG3-4(B40)
  activity: 4 score 0-4
LIG3-4(B36)
  activity: 4 score 0-4
